Experimental data from the RNAGym collection of RNA variant scans (doi:10.1093/nar/gkz1192).

B1: CPEB3 Ribozyme (parent)
chain: UAACAGGGGGCCACAGCAGAAGCGUUCACGUCGCAGCCCCUGUCAGAUUCUGGUGAAUCUGCGAAUUCUGCUGUAUAUCUC

Variants of: B1
Assay: self-cleavage, relative activity (ratio to wild type); higher = more cleavage; in vitro, sequencing
Summary of the method: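 Barcoded CPEB3 ribozyme mutants, produced by rounds of error-prone PCR, self-cleaved while being transcribed with T7 RNA polymerase for 5 hours at 37°C and during a subsequent 15 min DNase I step before EDTA was added. Sequencing of template-switched cDNA on Illumina gave cleaved and total reads, and DNA sequencing assigned barcodes to variants. Each variant's relative activity is its cleaved/total read fraction divided by the unmutated ribozyme's fraction, averaged across three batches. A variant needed a minimum of 5 reads.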

| Variant | self-cleavage |
| --- | --- |
| U43C | 0.67 |
| U43A | 1.17 |
| U43G | 0.28 |
| C44A A65G | 0.2 |
| C44A U74C | 0.63 |
| U43G U54C | 0.45 |
| U43G U54A | 0.26 |
| U43C A65G | 0.31 |
| U43C A65U | 0.19 |
| U43A U51A | 0.97 |
| U43A U51C | 0.88 |
| U43A U51G | 1.15 |
| A45C C62U | 0.36 |
| U43C U60C | 0.26 |
| U43C U60A | 0.27 |
| U43C U60G | 0.3 |
| C44G U48C | 0.1 |
| U43A G73U | 1.26 |
| U43A G73A | 1.28 |
| U43A G70U | 0.54 |
| C44G U78C | 0.44 |

| Variant | self-cleavage |
| --- | --- |
| A45C C81U | 0.45 |
| C44U A77U | 0.22 |
| U43G A56G | 0.23 |
| U43G A56U | 0.36 |
| C44G C68A | 0.3 |
| U43G U48A | 0.2 |
| U43G U48C | 0.39 |
| U43A G61A | 0.97 |
| U43A G61C | 0.36 |
| U43A U60C | 0.54 |
| U43A U60A | 0.53 |
| A45C A64G | 0.32 |
| A45C A64U | 0 |
| U43A U49G | 0.52 |
| U43A U49C | 0.53 |
| U43A U49A | 0.8 |
| U43C U58G | 0.19 |
| U43C U58A | 0.29 |
| U43C U58C | 0.23 |
| G42U U76C | 0.93 |
| A45C C59U | 0.22 |

| Variant | self-cleavage |
| --- | --- |
| U43G A64U | 0.47 |
| U43G A64G | 0.46 |
| C44U U69A | 0.13 |
| C44U U69C | 0.17 |
| A45C A77U | 0.39 |
| A45C A77G | 0.25 |
| U43C A75C | 0.84 |
| U43C A75G | 0.39 |
| U43C A75U | 0.62 |
| A45C A56G | 0.26 |
| A45C A56U | 0.25 |
| A45C A56C | 0.42 |
| C44A A45G | 0.61 |
| U43C A45G | 0.5 |
| U43C A45C | 0.3 |
| U43C A45U | 0.3 |
| C44A U72C | 0.71 |
| U43G U74G | 0.36 |
| U43G U74A | 0.11 |
| C44U A64G | 0.21 |
| C44U A64U | 0.18 |

| Variant | self-cleavage |
| --- | --- |
| U43G C81U | 0.08 |
| U43C A77U | 0.78 |
| U43C A77G | 0.58 |
| U43C U76A | 0.89 |
| U43C U76C | 0.73 |
| U43C U76G | 0.69 |
| C44U C81A | 0.11 |
| U43C C79A | 0.8 |
| U43C C79U | 0.91 |
| U43C U54A | 0.69 |
| U43C U54G | 0.49 |
| U43C U54C | 0.32 |
| C44U | 0.31 |
| C44A | 0.43 |
| C44G | 0.52 |
| U43C C44G | 0.09 |
| U43C C44U | 0.38 |
| A45C G63C | 0.52 |
| A45C G63A | 0.49 |
| C44G U60C | 0.38 |
